IntAct's records for PubMed 17412836

B1: Protein Nef (Human immunodeficiency virus type 1 group M subtype B (isolate Lai)), Q9QPN3 (parent)
chain: MGGKWSKSSVVGWPAVRERMRRAEPAADGVGAVSRDLEKHGAITSSNTAATNADCAWLEAQEEEEVGFPVTPQVPLRPMTYKAAVDLSHFLKEKGGLEGLIHSQRRQDILDLWIYHTQGYFPDWQNYTPEPGVRYPLTFGWCYKLVPVEPDKVEEANKGENTRLLHPVSLHGMDDPEREVLEWRFDSRLAFHHVARELHPEY
partner: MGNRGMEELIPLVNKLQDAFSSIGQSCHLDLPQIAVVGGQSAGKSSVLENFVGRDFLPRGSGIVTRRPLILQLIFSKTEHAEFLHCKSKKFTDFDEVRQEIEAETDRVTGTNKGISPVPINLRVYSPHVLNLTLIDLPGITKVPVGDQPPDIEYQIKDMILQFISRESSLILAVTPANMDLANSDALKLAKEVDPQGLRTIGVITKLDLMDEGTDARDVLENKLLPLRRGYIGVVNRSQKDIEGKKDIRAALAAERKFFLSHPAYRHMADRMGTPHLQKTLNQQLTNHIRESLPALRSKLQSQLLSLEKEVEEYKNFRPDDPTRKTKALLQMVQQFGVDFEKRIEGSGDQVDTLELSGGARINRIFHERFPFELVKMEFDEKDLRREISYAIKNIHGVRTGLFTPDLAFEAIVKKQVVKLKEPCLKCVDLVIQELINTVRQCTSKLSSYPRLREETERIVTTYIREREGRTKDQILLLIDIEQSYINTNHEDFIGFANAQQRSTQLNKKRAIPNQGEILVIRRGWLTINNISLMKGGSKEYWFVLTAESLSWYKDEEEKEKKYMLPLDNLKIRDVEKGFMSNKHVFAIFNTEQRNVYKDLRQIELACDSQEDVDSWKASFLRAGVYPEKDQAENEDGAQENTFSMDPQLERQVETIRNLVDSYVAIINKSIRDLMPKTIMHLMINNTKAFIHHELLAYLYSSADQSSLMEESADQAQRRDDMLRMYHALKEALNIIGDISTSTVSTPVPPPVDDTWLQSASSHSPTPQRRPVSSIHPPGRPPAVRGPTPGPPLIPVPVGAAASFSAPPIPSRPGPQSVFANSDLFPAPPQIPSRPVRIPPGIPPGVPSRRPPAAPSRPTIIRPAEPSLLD

Variants of: B1
Conditions: with dyn2_human DNM2, P50570

| Variant | effect of a mutation on the interaction |
| --- | --- |
| D123A | decreasing interaction strength |
| F121A | decreasing interaction strength |
| L112A | decreasing interaction strength |
| G2A;G3A | disrupting interaction strength |
| F121A;D123A | disrupting interaction strength |
